Laboratory results as given in doi:10.1101/2025.01.22.634249.

Biological target: TMHC2, designed transmembrane (TM) homodimer, monomeric construct with N-terminal SpyTag and SnoopTag (wild type)
Experiment: single-molecule magnetic tweezers

B1: peptide II (13-aa peptide …) (peptide)
peptide: TRTEIIRELERSL
- increase of partial TMHC2 dimerization up to the I1 state with peptide II: 41%
- percent of traces with only partial TMHC2 dimerization with 10 μM peptide: 62%
- probability of complete TMHC2 dimerization with 10 μM peptide: 38%
